Test results published in PMC7036035.

What was measured:
[1] = tested on: C[C@H](CCC(=O)NCCS(=O)(=O)O)[C@H]1CC[C@H]2[C@@H]3CC[C@@H]4C[C@H](O)CC[C@]4(C)[C@H]3C[C@H](O)[C@]12C; experiment: purified protein; conditions: pH 7.5; 37.0 °C
[2] = tested on: C[C@H](CCC(=O)NCCS(=O)(=O)O)[C@H]1CC[C@H]2[C@@H]3[C@@H](O)C[C@@H]4C[C@H](O)CC[C@]4(C)[C@H]3CC[C@]12C; experiment: purified protein; conditions: pH 7.5; 37.0 °C

Substance: B. theta BSH (BT_2086) (Bacteroides thetaiotaomicron VPI-5482)
- Km [1]: 3.4 mM
- kcat [1]: 0.215 ± 0.01 s⁻¹
- kcat/Km [1]: 63.3 ± 11.7 M⁻¹ s⁻¹
- Km [2]: 8.2 mM
- kcat [2]: 0.255 ± 0.0133 s⁻¹
- kcat/Km [2]: 31.7 ± 5 M⁻¹ s⁻¹
